Assay results: patent US5985836A, “Alpha-1 proteinase inhibitor binding peptides” (Bayer Corporation, priority 1998, dated 1999)
Ends that are not written are not given here.

Target: T1, A1PI (Homo sapiens, UniProt P01009)
T1 construct: Human plasma is currently the only approved source of therapeutic AlPI
Assay: A1PI binding on peptide-resin column, injection of 1 mg A1PI in equilibration buffer
Conditions: for Percent A1PI Eluted by Fraction Based on Absorbance at 280 nm, 1M NaCl / Percent A1PI Eluted by Fraction Based on Absorbance at 280 nm, 2% Acetic Acid / Percent A1PI Eluted by Fraction Based on Absorbance at 280 nm, Flowthrough / Percent A1PI Eluted by Fraction, 1M NaCl / Percent A1PI Eluted by Fraction, 2% Acetic Acid / Percent A1PI Eluted by Fraction, Flowthrough: 1 mg A1PI in equilibration buffer; for Percent A1PI Eluted by Fraction Based on Absorbance at 280 nm, 1M NaCl / Percent A1PI Eluted by Fraction Based on Absorbance at 280 nm, 2% Acetic Acid / Percent A1PI Eluted by Fraction Based on Absorbance at 280 nm, Flowthrough / % of Total A1PI Eluted by Fraction (Based on Absorbance at 280 nm), 1M NaCl / % of Total A1PI Eluted by Fraction (Based on Absorbance at 280 nm), 2% Acetic Acid / % of Total A1PI Eluted by Fraction (Based on Absorbance at 280 nm), Flowthrough: 4° C.; for Percent A1PI Eluted by Fraction, 1M NaCl / Percent A1PI Eluted by Fraction, 2% Acetic Acid / Percent A1PI Eluted by Fraction, Flowthrough: 20° C.; for % of Total A1PI Eluted by Fraction (Based on Absorbance at 280 nm), 1M NaCl / % of Total A1PI Eluted by Fraction (Based on Absorbance at 280 nm), 2% Acetic Acid / % of Total A1PI Eluted by Fraction (Based on Absorbance at 280 nm), Flowthrough: 1 mg A1PI
Experimental: Confirmatory binding assays were performed in a column chromatographic format on a microbore HPLC using individual peptide sequences synthesized directly onto the Toyopearl 650 M Chelate resin which had been modified with Totda followed by an alanine residue (A-Totda-Toyopearl), at a final substitution density of 0.1 mmole/g resin. The resin was packed into 0.4×5 cm columns (Thomson, Springfield, Va.) and tested on the Michrom HPLC system (Michrom BioResources, Auburn, Calif.). The elution program for all trials utilized the following method. The column was pre-equilibrated with equilibration buffer (as above). 1 ml of sample was injected and allowed sufficient time to flowthrough the column using equilibration buffer. The column was then washed with step elutions of 1M NaCl and 3M NaCl in equilibration buffer. The column was exposed to equilibration buffer with 0.1M NaCl. Any remaining protein was eluted with elution buffer (2% by volume glacial acetic acid in water).
A Gilson FC204 fraction collector at the HPLC outlet collected individual eluates for further analysis. Fractions collected from the 2% acetic acid eluates were neutralized with 2M Tris, pH 10.5 to bring the pH to neutrality. The protein samples were reconstituted in equilibration buffer unless otherwise stated. The samples were analyzed by the integration of the absorbance at 280 nm or by immunonephelometry. The specific method of determination is presented for each figure.
Tables 2 and 3 present the elution profiles for 19 sequences based on the injection of 1 mg AlPI in equilibration buffer at 4° C. and 20° C., respectively. The columns were run at a constant flow rate of865 μl/min (413 cm/hr) or 523 μl/min (250 cm/hr). No dependence of the elution profile with flow rate was found. The Percent AlPI Eluted by Fraction represents the amount eluted in the flowthrough, 1M NaCl wash, and 2% acetic acid fractions relative to the total AlPI eluted. The percentages are based on either the integration of the peak areas at […]

[1] = VIWLVR N-terminal point mutations

T1 sequence (P01009 25-418): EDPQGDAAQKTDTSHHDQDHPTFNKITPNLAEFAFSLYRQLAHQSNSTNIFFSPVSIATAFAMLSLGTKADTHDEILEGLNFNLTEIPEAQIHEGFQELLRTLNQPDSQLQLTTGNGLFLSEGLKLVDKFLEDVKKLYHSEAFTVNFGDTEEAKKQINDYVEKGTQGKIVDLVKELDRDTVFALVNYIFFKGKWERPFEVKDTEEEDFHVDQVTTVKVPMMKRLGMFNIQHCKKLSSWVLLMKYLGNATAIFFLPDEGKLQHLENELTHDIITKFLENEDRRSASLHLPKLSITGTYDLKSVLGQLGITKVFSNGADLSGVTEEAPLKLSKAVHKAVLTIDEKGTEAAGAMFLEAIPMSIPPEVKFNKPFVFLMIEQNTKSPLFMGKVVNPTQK

Substance | Percent A1PI Eluted by Fraction Based on Absorbance at 280 nm, 1M NaCl | Percent A1PI Eluted by Fraction Based on Absorbance at 280 nm, 2% Acetic Acid | Percent A1PI Eluted by Fraction Based on Absorbance at 280 nm, Flowthrough | Percent A1PI Eluted by Fraction, 1M NaCl | Percent A1PI Eluted by Fraction, 2% Acetic Acid | Percent A1PI Eluted by Fraction, Flowthrough | % of Total A1PI Eluted by Fraction (Based on Absorbance at 280 nm), 1M NaCl [1] | % of Total A1PI Eluted by Fraction (Based on Absorbance at 280 nm), 2% Acetic Acid [1] | % of Total A1PI Eluted by Fraction (Based on Absorbance at 280 nm), Flowthrough [1] | other results
N I F L V R: point mutation of VIFLVR, position 1 (NIFLVR) | – | – | – | – | – | – | – | – | – | % of Total A1PI Eluted by Fraction (Based on Absorbance at 280 nm), 1M NaCl (VIFLVR point mutations): 25%; % of Total A1PI Eluted by Fraction (Based on Absorbance at 280 nm), 2% Acetic Acid (VIFLVR point mutations): 75%; % of Total A1PI Eluted by Fraction (Based on Absorbance at 280 nm), Flowthrough (VIFLVR point mutations): 0%
NNWLVR: point mutation of VIWLVR on Ala-Totda-Toyopearl (not fully specified (C-terminus)) | – | – | – | – | – | – | 13% | 4% | 83% | –
NSWLVR: point mutation of VIWLVR on Ala-Totda-Toyopearl (not fully specified (C-terminus)) | – | – | – | – | – | – | 43% | 5% | 52% | –
RRKYLW | 92% | 8% | 0% | 82% | 18% | 0% | – | – | – | –
SHWLVR: point mutation of VIWLVR on Ala-Totda-Toyopearl (not fully specified (C-terminus)) | – | – | – | – | – | – | 87% | 13% | 0% | –
SNWLVR: point mutation of VIWLVR on Ala-Totda-Toyopearl (not fully specified (C-terminus)) | – | – | – | – | – | – | 95% | 5% | 0% | –
SSWLVR: point mutation of VIWLVR on Ala-Totda-Toyopearl (not fully specified (C-terminus)) | – | – | – | – | – | – | 94% | 6% | 0% | –

Continued, in another order:

Percent A1PI Eluted by Fraction Based on Absorbance at 280 nm, 1M NaCl | Percent A1PI Eluted by Fraction Based on Absorbance at 280 nm, 2% Acetic Acid | Percent A1PI Eluted by Fraction Based on Absorbance at 280 nm, Flowthrough | Percent A1PI Eluted by Fraction, 1M NaCl | Percent A1PI Eluted by Fraction, 2% Acetic Acid | Percent A1PI Eluted by Fraction, Flowthrough | % of Total A1PI Eluted by Fraction (Based on Absorbance at 280 nm), 1M NaCl [1] | % of Total A1PI Eluted by Fraction (Based on Absorbance at 280 nm), 2% Acetic Acid [1] | % of Total A1PI Eluted by Fraction (Based on Absorbance at 280 nm), Flowthrough [1] | Substance | other results
97% | 3% | 0% | 92% | 8% | 0% | – | – | – | IIe Lys Arg Tyr Tyr Leu (IKRYYL) | –
100% | 0% | 0% | 95% | 5% | 0% | – | – | – | IKRYYN | –
– | – | – | – | – | – | 0% | 0% | 100% | NDWLVR: point mutation of VIWLVR on Ala-Totda-Toyopearl (not fully specified (C-terminus)) | –
– | – | – | – | – | – | 83% | 17% | 0% | NHWLVR: point mutation of VIWLVR on Ala-Totda-Toyopearl (not fully specified (C-terminus)) | –
95% | 5% | 0% | 93% | 7% | 0% | – | – | – | NWKRVR | –
– | – | – | – | – | – | 1% | 1% | 98% | SDWLVR: point mutation of VIWLVR on Ala-Totda-Toyopearl (not fully specified (C-terminus)) | –
